Source: patent US10233255B2, “Antibody therapeutics that bind STAT3” (Sorrento Therapeutics, Inc., priority 2016, dated 2019)
“Also recorded” adds a separate entry of the source.

Legend:
MCF-10A cells = assay: Accumulation / internalization of antibody conjugate in MCF-10A cells (fluorescence imaging); assay type: cell-based, human; conditions: 30 minutes pretreatment, FIG. 14
mouse STAT3 = target: T1, mouse STAT3 (Mus musculus, UniProt P42227); assay: Cell binding assay on fixed, permeabilized mouse cell lines (flow cytometry); conditions: FIG. 3C
T1 construct: endogenous in cells; host or cells: CT-26, MC-38
T1 sequence (P42227 whole entry): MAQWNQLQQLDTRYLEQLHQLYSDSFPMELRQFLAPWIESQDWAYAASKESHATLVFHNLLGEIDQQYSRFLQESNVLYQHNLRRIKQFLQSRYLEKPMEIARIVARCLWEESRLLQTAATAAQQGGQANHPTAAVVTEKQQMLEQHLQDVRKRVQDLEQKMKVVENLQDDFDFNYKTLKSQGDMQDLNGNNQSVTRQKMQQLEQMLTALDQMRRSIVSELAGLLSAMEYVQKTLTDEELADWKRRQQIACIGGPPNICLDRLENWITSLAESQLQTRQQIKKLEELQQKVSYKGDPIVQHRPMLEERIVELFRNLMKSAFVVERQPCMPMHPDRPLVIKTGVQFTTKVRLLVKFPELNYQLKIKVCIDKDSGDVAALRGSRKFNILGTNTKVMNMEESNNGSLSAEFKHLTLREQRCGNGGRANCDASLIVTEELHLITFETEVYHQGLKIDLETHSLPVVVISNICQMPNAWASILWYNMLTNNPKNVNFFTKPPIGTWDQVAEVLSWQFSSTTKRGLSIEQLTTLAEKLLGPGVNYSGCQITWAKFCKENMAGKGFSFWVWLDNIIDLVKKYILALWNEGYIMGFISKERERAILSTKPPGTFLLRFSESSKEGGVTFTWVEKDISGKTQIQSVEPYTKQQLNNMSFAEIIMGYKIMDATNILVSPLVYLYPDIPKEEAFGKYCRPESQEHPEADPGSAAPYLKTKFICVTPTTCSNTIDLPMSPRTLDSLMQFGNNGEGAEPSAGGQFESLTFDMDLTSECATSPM
Procedure: (§1) Next, the binding of the candidate anti-STAT3 antibodies to cellular targets was tested in cell binding assays using MDA-MB-435 breast cancer cells and U251 cells. The cells were seeded overnight in a 96 well plate, then fixed with PFA and permeabilized with methanol. Cells were incubated with serial dilutions of the anti-STAT3 antibody candidates ST1A5, ST3G12 and ST5G12 for one hour and 30 minutes. Following incubation, the cells were washed and incubated for 30 minutes with phycoerythrin (PE) conjugated anti-human IgG. Fluorescence was measured on an Intellicyte high-throughput flow cytometry analyzer. […] Bevacizumab (Avastin), a monoclonal antibody that inhibits vascular endothelial growth factor A (VEGF-A) was used as a negative control.
(§2) An isotype control was used as a negative control. The experimental procedure was the same as described above for FIGS. 3A and 3B.

[1] = test system: cellular antigens in U251 cells; assay: Cell binding of naked versus PS-conjugated antibody in U251 cells (HTFC); parameters: species or system human; conditions: permeabilized U251 cells, FIG. 4
Procedure: Cell binding of naked anti-STAT3 ST3G12 antibodies (ST3G12) versus compound 901 (ST3G12-PS) was assessed in U251 cells. Cells were lifted, permeabilized and incubated with increasing amounts of naked anti-STAT antibodies and PS anti-STAT antibody (compound 901) in PBS+/−2% fetal bovine serum (FBS). After 45 minutes at room temperature, cells were washed twice and incubated with phycoerythrin (PE) conjugated-anti-human IgG for 20 minutes at room temperature in the dark. Cells were then washed and analyzed by high throughput flow cytometry (HTFC). The results are shown in FIG. 4 for assessment of antibody binding to U251 cells.

U251 cells = assay: Accumulation / internalization of antibody conjugate in U251 cells (fluorescence imaging); assay type: cell-based, human; conditions: 20 ug/mL, 2 hours at 37° C.
Procedure: The same experiments were repeated in the U251 glioblastoma cell line, which also has high levels of STAT3 activity, as described in FIG. 7A. U251 cells were treated with 10 ug/ml of ST3G12-PS antibody conjugate compound 901 in increasing proportions of human serum (1%, 5%, 10% and 20%), for 90 minutes at 37° C. Cells were then fixed, permeabilized and stained with anti-human IgG Alexa546. […] MCF-10A, a normal human mammary epithelial cell line with low levels of STAT3 activity (STAT3 low), was described in FIGS. 7A and 7B. This cell line was also tested according to the above protocol. […] The results of another experiment that was performed to determine accumulation of anti-STAT3 antibody conjugate (e.g. compound 901) are shown in FIG. 7C.
Experiments were carried out to confirm that the ST3G12-PS antibody conjugate (compound 901) was penetrating the cells. Briefly, previously cleaned glass coverslips were coated with collagen for 2 hours at 37° C. 100,000 U251 cells were seeded on the coverslips. Media was removed, and cells were rinsed once with fluorobrite. Next, 20 ug/mL of the specified antibody was added for 2 hours at 37° C. […] In FIG. 10E, red fluorescence indicates the plasma membrane, blue fluorescence indicates the nuclei and green florescence represents the intracellular accumulated ST3G12-PS antibody conjugate compound 901a. […]

STAT3 [2] = target: T2, STAT3 (Homo sapiens, UniProt P40763); assay: Cell binding assay on fixed, permeabilized human cells (PE anti-human IgG, flow cytometry); parameters: endogenous in cells; host or cells: MDA-MB-468 (also given as MDA-MB-435), U251, HeLa
T2 sequence (P40763 whole entry): as the sequence (P42227 whole entry) above, with D760E counted along it
Procedure: as §1, §2

STAT3 [3] = target: T2, STAT3; assay: Biacore T200 affinity measurement, captured antibody vs recombinant human STAT3-GST; assay type: binding
Procedure: Biacore T200 was used to measure the affinity of anti-STAT and anti-STAT-phosphorothioate (PS) antibody (compound 901) to human STAT3. Anti-human Fc antibody (GE, BR-1008-39) was immobilized on a CM5 sensor chip to approximately 1000 RU using standard NHS/EDC coupling methodology. Antibodies (approximately 10 ug/ml) were captured for 60 seconds at a flow rate of 10 ul/min Recombinant human STAT3-GST was serially diluted 2-fold into running buffer (HBS-EP+, starting from […]). All measurements were conducted at a flow rate of 30 ul/min Surfaces were regenerated with 3M MgCl2 (from human antibody kit) for 60 seconds. A 1:1 (Langmuir) binding model was used to fit the data. The results are shown in Table 2, below for anti-STAT3 antibody, ST3G12, and the conjugated anti-STAT3 antibody, ST3G12-PS (compound 901).

[4] = mouse, in vivo, iv
Description: (§3) The pharmacokinetic properties of the anti-STAT3 antibody conjugates were examined in athymic nude mice.

STAT3 phosphorylation = assay: IL-6 stimulated STAT3 phosphorylation ELISA on cell lysates; assay type: cell-based, human; conditions: overnight antibody, IL-6 10 or 40 ng/ml for 20 minutes
Procedure: Normal breast epithelial cells (MCF-10A) and ER+ breast cancer cells (MCF-7) were treated with naked ST3G12 antibody and conjugated ST3G12-PS antibody (compound 901) (shown as “OS-STAT3” in FIGS. 8A and 8B) to determine the effect on STAT3 phosphorylation. Cells were pre-treated overnight with antibody, and then stimulated with various concentrations of IL-6 for 20 minutes (10 ng/ml or 40 ng/ml). IL-6 is a STAT3 activator. Cells were then lysed and the protein lysates were subjected to ELISA to determine the phosphorylation status. […] “OS-AIP” refers to an oligosaccharide conjugated bacterial AIP protein, used as a control.

[5] = Pharmacokinetics in athymic nude mice; conditions: administered intravenously
Description: as §3

[6] = test system: Human colon cancer HCT116 cells; assay: Penetration of 3D tumor spheroids, HCT116 cells; assay type: cell-based; conditions: alexa fluor 488 labeled, FIG. 18C
Procedure: Next, experiments were carried out to determine the effect of the STAT3 antibody conjugate on penetration of tumor cells and on tumor cell growth in a three-dimensional (3D) model. 3D in vitro models, such as a tumor spheroid model, have been used in cancer research as an intermediate model between in vitro cancer cell line cultures and in vivo tumor. Human colon cancer HCT116 cells were grown in a 3D tumor spheroid model in a ULA (ultra low attachment) plate, and treated with alexa fluor 488 dye labeled anti-STAT3 monoclonal antibody or alexa fluor labeled anti-STAT3 antibody conjugate (compound 901) for one hour to initiate the uptake. Thereafter, spheres were imaged every 10 min for the next 80 hours with ImageExpress. FIG. 18C are images that show detection of the alexa fluor. […] Next, the effect of the anti-STAT3 antibody conjugate (compound 901) on the growth of 3D tumor spheroids was examined DU145 human prostate cancer cells were seeded in ULA plate. Spheres were allowed to form for 72 hours then treated with the indicated antibodies for additional 5 days. Growth was monitored by ImageXpress HCS confocal microscopy (FIG. 19A). CTG assay was used to determine percent viability in FIG. 19B and percent killing in FIG. 19C. Experiments were done in triplicate wells. Error bars represent one standard deviation.

GST protein = GST protein (Schistosoma japonicum, UniProt P08515); assay: Biacore binding to GST protein (specificity control)
Sequence of GST protein (P08515 whole entry): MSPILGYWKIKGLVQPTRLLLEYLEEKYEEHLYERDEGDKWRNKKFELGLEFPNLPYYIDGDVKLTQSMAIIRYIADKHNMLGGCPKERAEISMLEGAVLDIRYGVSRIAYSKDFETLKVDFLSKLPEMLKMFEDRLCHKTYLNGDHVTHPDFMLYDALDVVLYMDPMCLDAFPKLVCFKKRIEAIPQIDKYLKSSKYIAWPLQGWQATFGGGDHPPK

With O=C1NC(=NS(=O)(=O)c2cccc3ccccc23)S/C1=C\c1ccc(Br)cc1 [PS2, Pitstop2] the “effect of clathrin inhibitor on ST3G12-PS uptake” value (MCF-10A cells; 30 uM and 60 uM) was “inhibited”.

For CCCCC[C@@H](O)[C@H]1C(=O)O[C@H](C)[C@@H](O)/C=C/C=C/C=C/C=C/C=C(\C)[C@@H](O)C[C@H](O)C[C@H](O)C[C@H](O)C[C@H](O)C[C@H](O)C[C@@H]1O [filipin], the “effect of caveolin inhibitor on ST3G12-PS uptake” value (MCF-10A cells; 0.5 ug/ml) was “little effect” and the “effect of caveolin inhibitor on ST3G12-PS uptake” value (MCF-10A cells; 1.0 ug/ml) was “greater effect”.

B1: ST3G12: fully human anti-STAT3 antibody, heavy/light chain variable domains SEQ ID NO. 3/SEQ ID NO. 4 (antibody, V domains shown)
VH: QVQLVQSGAEVKKPGASVKVSCKASGYTFTSYYMHWVRQAPGQGLEWMGIINPSGGSTSYAQKFQGRVTMTRDTSTSTVYMELSSLRSEDTAVYYCARSDYVHSFDIWGQGTMVTVSS
VL: QPVLTQPPSASALLGASIKLTCTLSSEHSTYTVEWYQQRPGRSPQYIMNVKSDGSYNKGDGIPDRFMGSSSGADRYLTFSNLQSDDEAEYHCGESHRIDGQVGVVFGGGTKLTVL
In the case of B1, the “binding to CT-26 mouse cell line” value (mouse STAT3; CT-26 cells) is reported as “able to recognize mouse STAT3”, the “binding to MC-38 mouse cell line” value (mouse STAT3; MC-38 cells) is reported as “able to recognize mouse STAT3” and the “antibody binding to U251 cells, naked versus conjugated” value [1] is reported as “considerably lower”. For the same molecule, the “cell penetration / internalization by microscopy” value (U251 cells) was “no internalization”, the “binding to HeLa cell line” value (STAT3 [2]; HeLa cells, FIG. 3C) was “strong binding” and the “STAT3 binding in MDA-MB-468 cells” value (STAT3 [2]; MDA-MB-468 cells, FIG. 3A) was “bound STAT3”. For the same molecule, the “STAT3 binding in U251 cells” value (STAT3 [2]; U251 cells, FIG. 3B / 3C) was “bound STAT3; also recorded: strong binding”, the Rmax (STAT3 [3]) was 174 and the “Ka” value (STAT3 [3]; 1:1 (Langmuir) binding model) was 59700 M⁻¹ s⁻¹. For the same molecule, the “Kd” value (STAT3 [3]; 1:1 (Langmuir) binding model) was 0.000322 s⁻¹, the “AUC (0-336 hr)” value [4] was 254.6 µg·days/mL and the “Cmax” value [4] was 79.7 µg/mL. The “Vs s” value [4] was 0.0833 L/kg, the “effect on STAT3 phosphorylation in MCF-10A cells” value (STAT3 phosphorylation; FIG. 8A) was “little to no effect” and the “effect on STAT3 phosphorylation in MCF-7 cells” value (STAT3 phosphorylation; FIG. 8B) was “little to no effect”. For the same molecule, the “CI” value [5] was 18.7 mL/day/kg, the “T ½” value [5] was 76.5 h and the “penetration of tumor spheroids” value [6] was “did not”. The “binding to GST protein” value (GST protein) was “No binding”.
